Source: article PMC11813103, “Interaction of cardiac leiomodin with the native cardiac thin filament” (PLOS Biology, 2025)

B1: Lmod2[387–426] (peptide)
peptide: WQRGTPGSSPYASPRQSPWSSPKVSKKVHTGRSRPPSPVA
notes: also called C-terminal Lmod2 fragment between the LRR domain and the polyP region; source: synthetic peptide (Tufts University Core Facility)
B2: Lmod2[451–492] (peptide)
peptide: PLPEKKLITRNIAEVIKQQESAQRALQNGQRKKKGKKVKKQP
notes: also called C-terminal Lmod2 fragment after the polyP region; source: synthetic peptide (Tufts University Core Facility)
B3: Lmod2[518–543] (peptide)
peptide: STPQRSVHENLMEAIRGSSIRQLRRV
notes: also called Lmod2 fragment containing the WH2 domain; source: synthetic peptide (Tufts University Core Facility)

biological target: G-actin (UniProt P68135 1-377); experiment: native gel or EMSA; 9% polyacrylamide, 10% glycerol, no SDS; fragments mixed with 5 μM G-actin at 1:2, 1:1, 1.5:1 and 2:1 molar ratios (Lmod2[518–543] at 2:1 only); densitometry of the actin band; conditions: both partners purified

Binder	percent of the actin in complex at a 2:1 fragment to actin molar ratio [%]
B1	~70
B2	~60
B3	~90
